From the supplement of paper PMC10567573
± gives the standard deviation.

Experiment: protein stability index of a GFP-peptide fusion (GPS, HEK-293T) (PSI 1-6); higher = more stable
[1] = treatment: DMSO, c terminus: a fixed tail appended
[2] = treatment: MLN4924 1 uM, 8 h, c terminus: a fixed tail appended
[3] = treatment: DMSO, c terminus: native
[4] = treatment: MLN4924 1 uM, 8 h, c terminus: native
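Note: 24-mer peptide tiles fused after GFP, lentivirally expressed, FACS-sorted into six equal bins by GFP/DsRed ratio, decoded by Illumina sequencing, PSI is the read-weighted mean bin number.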

| Sequence | protein stability index [1] | protein stability index [2] | protein stability index [3] | protein stability index [4] |
| --- | --- | --- | --- | --- |
| ELLCELGRPSMVWLSANPCPHCGD [PRAME] | 2.08 ± 0.043 | 2.28 ± 0.31 | – | – |
| KSSSVDSELTSLCQSVLEDFNLCL [SMG5] | 2.95 ± 0.25 | 2.97 ± 0.3 | – | – |
| SRALALFDIQKIMQEKNPVHVIGV [ZNF8] | 2.52 ± 0.27 | 1.89 ± 0.39 | – | – |
| YDGLDCQARQFRTFHHPTYGSCYT [SCNN1D] | 2.54 ± 0.1 | 2.59 ± 0.18 | – | – |
| RYLTFFHNYNILIATLRVALPSVM [MCOLN1] | 3.31 ± 0.65 | 3.05 ± 0.54 | – | – |
| DALTKLEQGEPLWTLEDEIHSPAH [ZNF649] | 3.49 ± 0.35 | 3.65 ± 0.24 | – | – |
| KQEENDVVEKLNLFLDLLQSYKDL [SNX8] | 1.95 ± 0.29 | 2.12 ± 0.31 | – | – |
| MSSRKVLAIQARKRRPKREKHPKK [SRPK2] | 4.41 ± 0.28 | 4.46 ± 0.52 | – | – |
| LARADLEMQIENLKEELAYLKKNH [KRT17] | 3.12 ± 0.35 | 3.21 ± 0.45 | – | – |
| AAKFPSGSQRARVVNTDHGSPEQL [SDE2] | 4.56 ± 0.44 | 4.81 ± 0.17 | – | – |
| QFLKELLLKPHSYGRFIRWLNKEK [SPDEF] | 2.28 ± 0.43 | 2.21 ± 0.25 | – | – |
| RYFPAGNVVNEGFFEENVLPPKK [GLIPR2] | – | – | 4.72 ± 0.066 | 4.59 ± 0.38 |
| KQLLSNKELILDKVYTHPKWNTQT [ZC2HC1C] | 2.79 ± 0.14 | 3.15 ± 0.23 | – | – |
| ARRTTRSEPIRRAGKSGTSTPTTP [MAP2] | 4.66 ± 0.12 | 4.8 ± 0.12 | – | – |
| LTRLRTASGHEPGGSAVCASRVKL [PLEKHN1] | 3.63 ± 0.17 | 3.61 ± 0.28 | – | – |
| FSTQYRCFSVSMLAGPNDRSDVEK [UFD1] | 2.68 ± 0.39 | 3.01 ± 0.57 | – | – |
| AIAPFQSAGSPPELQGLPELHEEC [NET1] | 4.99 ± 0.33 | 4.85 ± 0.14 | – | – |
| FDEPFLTRNVQSVSIIDTELKVKD [TRIP13] | 4.65 ± 0.19 | 4.49 ± 0.068 | – | – |
| RCGKFLQDGLPPTWRDFRTLEAFH [MED27] | 2.17 ± 0.33 | 2.12 ± 0.18 | – | – |
| EPPEEPEQCPVIDSQAPAGSLDLV [SPDEF] | 5.37 ± 0.17 | 5.51 ± 0.18 | – | – |
| HLLGIPHSVLQIRYSGKILKNNET [IQUB] | 2.77 ± 0.41 | 2.32 ± 0.38 | – | – |
| KTVSLQIFSVLNSDDAAAPALETQ [SMOC2] | 3.2 ± 0.59 | 3.56 ± 0.38 | – | – |
| YIAAFLHVLLPVALEFQPQLVLVA [HDAC6] | 3.25 ± 0.84 | 3.14 ± 0.41 | – | – |

| Sequence | protein stability index [1] | protein stability index [2] | protein stability index [3] | protein stability index [4] |
| --- | --- | --- | --- | --- |
| SNLIRHQRIHAAERLCMGVDCTEI [ZNF263] | 3.17 ± 0.2 | 3.18 ± 0.21 | – | – |
| NLAAAAADIPQDQLVVMHPTPQVD [BTBD10] | 5.14 ± 0.21 | 5.13 ± 0.21 | – | – |
| DDPSLLKEAKTKYPNYEFISDNSI [FUT8] | 3.58 ± 0.36 | 4.04 ± 0.53 | – | – |
| NVTNLEGGPGRQTTSPNVLWPTPG [ESR2] | 3.17 ± 0.35 | 3.17 ± 0.37 | – | – |
| SFQIVLDPMLDFYSDKNAKLTKES [TENT5D] | 2.91 ± 0.43 | 3.09 ± 0.37 | – | – |
| VWWVSQFVKYLIRPQPWLEKEIEE [FUT8] | 2.32 ± 0.46 | 2.035 ± 0.002 | – | – |
| RVEDAFYTLVREIRQYRLKKISKE [KRAS] | 2.3 ± 0.17 | – | – | – |
| PDLLPTDYRKQLQYPNPLPVLSGA [VPS39] | 3.34 ± 0.4 | 3.43 ± 0.14 | – | – |
| GPQLEGEKDWGLEGYVWRGSQLED [ZSWIM9] | 4.52 ± 0.23 | 4.45 ± 0.28 | – | – |
| AAVEGSGGSGGGSHHHHQSRGACT [KCNA4] | 4.97 ± 0.16 | 4.7 ± 0.71 | – | – |
| IIVNLLWFIHLVFVVLAFLTGVLC [TMEM192] | 2.78 ± 0.58 | 2.3 ± 0.48 | – | – |
| LVATNAHLDHYYQEELPALLKALV [FCHSD1] | 2.24 ± 0.23 | 2.19 ± 0.36 | – | – |
| AKPEVLSIQWPGKRSSRRVQRHNS [NECAB1] | 4.23 ± 0.2 | 4.37 ± 0.21 | – | – |
| FGSRSLYSLGGVRSLNVASGSGKS [KRT71] | 2.35 ± 0.77 | 3.01 ± 0.82 | – | – |
| FNIVYIYTSELYPTVIRNVGLGTC [SLC22A15] | 3.07 ± 0.23 | 3.07 ± 0.62 | – | – |
| QPMQNGEEDRPLGGGEGHQPAGNR [BEX3] | 5.42 ± 0.4 | 5.36 ± 0.35 | – | – |
| YNIRTDSWTTVTSMTTPRCYVGAT [KLHL12] | 2.44 ± 0.23 | 2.67 ± 0.33 | – | – |
| FRQRCLERMRNSRDRLLNRYRQAG [RPAIN] | 3.15 ± 0.12 | 3.2 ± 0.15 | – | – |
| LGFGPTYVVLAYTLPPASRFIIIF [SOAT1] | 3.09 ± 0.14 | 3.03 ± 0.77 | – | – |
| SAENIPGCSSSGSCSQGSGILHYA [CRY1] | 2.9 ± 0.33 | 2.93 ± 0.2 | – | – |
| TQRQFTILNFNDLMSSAVPMTPED [AASDHPPT] | 3.74 ± 0.14 | 3.38 ± 0.35 | – | – |
| DFGLAKEYIDPETKKHIPYREHKS [CSNK1G1] | 4.26 ± 0.34 | 4.34 ± 0.086 | – | – |
| FDGTAHLSSVEAYNIRTDSWTTVT [KLHL12] | 2.58 ± 0.38 | 2.62 ± 0.52 | – | – |

| Sequence | protein stability index [1] | protein stability index [2] | protein stability index [3] | protein stability index [4] |
| --- | --- | --- | --- | --- |
| RNSTPPSLARNPAPGVLTNKRKTY [ZC2HC1A] | 4.86 ± 0.21 | 4.68 ± 0.17 | – | – |
| VLFAVGGWCSGDAISSVERYDPQT [KLHL20] | 2.12 ± 0.21 | 2.29 ± 0.15 | – | – |
| HESSGNPPLRVIVKDALFCSCLSD [RHOBTB3] | 3.11 ± 0.25 | 3.24 ± 0.12 | – | – |
| INIKGISEAKADKILAEAAKLVPM [RAD51] | 2.62 ± 0.15 | 2.42 ± 0.15 | – | – |
| LHRILHHKHVVQFYHYFEDKENIY [PLK2] | 2.58 ± 0.51 | 2.32 ± 0.38 | – | – |
| VSLGQKLVAAYVLGLLTMVFLRT [MOSPD3] | – | – | 2.56 ± 0.71 | 2.07 ± 0.42 |
| AYALPAGLSAPARCLVRCLLRREP [TRIB3] | 2.23 ± 0.49 | 1.87 ± 0.31 | – | – |
| VVAVDRDSGQNAWLSYRLLKASEP [PCDHGA10] | 2.56 ± 0.17 | 2.6 ± 0.31 | – | – |
| EFSVPFTEMKLRPRNFRSPAGGG [TNXB] | – | – | 3.4 ± 1.1 | 3.09 ± 1.1 |
| AEAQKNMYFKTRLKCPRSLSGGR [ZNF396] | – | – | 2.72 ± 0.45 | 2.99 ± 0.44 |
| IHFTLIQAFCCENDINILRVSNPG [GADD45A] | 3 ± 0.46 | 2.71 ± 0.45 | – | – |
| TESQLTPCIRNVTSPTRQHHVERE [BTBD10] | 4.99 ± 0.16 | 4.95 ± 0.17 | – | – |
| FDDEEPRKFYVHIKPAPARAPACS [FCHO1] | 3.27 ± 0.14 | 3.29 ± 0.38 | – | – |
| IKALFRKGKVLAQQGEYSEAIPIL [FKBP8] | 2.54 ± 0.38 | 2.36 ± 0.42 | – | – |
| IFEPPVRNSGIIGGKYLGRTKVVK [EFHC1] | 3.42 ± 0.3 | 3.62 ± 0.28 | – | – |
| DPLRSGTVLVSVTVFDANDNAPVF [PCDHGA10] | 2.73 ± 0.42 | 2.82 ± 0.6 | – | – |
| LERYVASLMPLQKSISPWKSPPQL [DENND6A] | 2.16 ± 0.28 | 2.21 ± 0.25 | – | – |
| VIDAEPFIRCSLQCRDLVDEAKKF [KLHL12] | 2.58 ± 0.46 | 2.35 ± 0.065 | – | – |
| VAERGTTQGCHPAWEPRSESQASR [ZNF8] | 4.48 ± 0.22 | 4.6 ± 0.2 | – | – |
| PDPLNICVFILLLVFIVVKCFTSE [RTP4] | 2.97 ± 1.2 | 2.72 ± 0.81 | – | – |
| EVEGTKPSATEMIWAVLAAFNKS [GOLPH3L] | – | – | 2.4 ± 0.18 | 2.4 ± 0.33 |
| LAVSNMGARSKGQCPEPPIVVHCS [PTPN9] | 3 ± 0.33 | 2.95 ± 0.28 | – | – |
| GPPVGPLSLGLATVDIQNPDITSS [WAS] | 4.68 ± 0.23 | 4.39 ± 0.24 | – | – |

| Sequence | protein stability index [1] | protein stability index [2] | protein stability index [3] | protein stability index [4] |
| --- | --- | --- | --- | --- |
| PETLPESSLFSVEANSSNSQKNEK [C8orf76] | 5.54 ± 0.14 | 5.41 ± 0.4 | – | – |
| RTSKSRGFAFITFENPADAKNAAK [RBMY1A1] | 3.26 ± 0.28 | 3.46 ± 0.43 | – | – |
| VKTGEDGSNLDDAKGLAESLELPK [FANCE] | 5.44 ± 0.18 | 5.49 ± 0.14 | – | – |
| RQPAFDTFDGSLFAVFPSLNEEQT [ETS2] | 3.89 ± 0.2 | 4.04 ± 0.31 | – | – |
| DASSSTSTSSSFPSSFPSSSSSSS [MAGEA10] | 5.07 ± 0.37 | 5.23 ± 0.085 | – | – |
| RYHFATGVWHQMGTDGYMPRELAS [KLHDC10] | 2.6 ± 0.2 | 2.41 ± 0.24 | – | – |
| EAGAMTFHYIIEQGVCYLVLCEAA [SEC22B] | 3.08 ± 0.23 | 3.01 ± 0.33 | – | – |
| NDTYRTDLCLLYPPFMIALACLHV [CCNC] | 3.07 ± 0.38 | 2.97 ± 0.23 | – | – |
| RRVPPRFSIPPTNHEIMPGGSVNI [PTPRD] | 3.38 ± 0.22 | 3.39 ± 0.22 | – | – |
| QALRENTYPFLAMIMLKDRRMTVV [FAF2] | 2.23 ± 0.31 | 1.96 ± 0.21 | – | – |
| SDFKTDKEGGQAGSGQRVPALEEA [ELOA2] | 5.61 ± 0.18 | 5.49 ± 0.22 | – | – |
| FKDYIQERSDPVEQGKPVIPAAVL [ETS2] | 4.08 ± 0.2 | 3.97 ± 0.27 | – | – |
| EPRQRRLLLLDLLALYTPVGAAGS [ANKRD9] | 2.65 ± 0.57 | 2.44 ± 0.88 | – | – |
| YTPTAEDSAQMQNGGPSTPPASPP [ANKRD40] | 5.27 ± 0.22 | 5.16 ± 0.2 | – | – |
| NGLTPKKKIQVNSKPSIQPKPLLL [ATF6] | 3.48 ± 0.17 | 3.32 ± 0.25 | – | – |
| VVPSYIPLVKKHCDDSFTPQEKLW [CPOX] | 2.93 ± 0.15 | 2.98 ± 0.35 | – | – |
| CKDFLCQFCAQRFGRKDHLTRHTK [PLAGL1] | 2.63 ± 0.25 | 3.09 ± 0.64 | – | – |
| WKCKNARGQVGLVPKNYVVVLSDG [NCK2] | 2.15 ± 0.26 | 2.31 ± 0.45 | – | – |
| LGFAYAKEDKIMLDDRKNEEDGGA [MIA2] | 4.96 ± 0.13 | 5.18 ± 0.2 | – | – |
| VRTMQNTNDVETARCTAGTLHNLS [CTNNB1] | 3.57 ± 0.33 | 3.81 ± 0.32 | – | – |
